Measurements: IntAct's records for PubMed 26221972

B1: T-lymphocyte surface antigen Ly-9 (Homo sapiens), Q9HBG7 (parent)
chain: MVAPKSHTDDWAPGPFSSKPQRSQLQIFSSVLQTSLLFLLMGLRASGKDSAPTVVSGILGGSVTLPLNISVDTEIENVIWIGPKNALAFARPKENVTIMVKSYLGRLDITKWSYSLCISNLTLNDAGSYKAQINQRNFEVTTEEEFTLFVYEQLQEPQVTMKSVKVSENFSCNITLMCSVKGAEKSVLYSWTPREPHASESNGGSILTVSRTPCDPDLPYICTAQNPVSQRSSLPVHVGQFCTDPGASRGGTTGETVVGVLGEPVTLPLALPACRDTEKVVWLFNTSIISKEREEAATADPLIKSRDPYKNRVWVSSQDCSLKISQLKIEDAGPYHAYVCSEASSVTSMTHVTLLIYRRLRKPKITWSLRHSEDGICRISLTCSVEDGGNTVMYTWTPLQKEAVVSQGESHLNVSWRSSENHPNLTCTASNPVSRSSHQFLSENICSGPERNTKLWIGLFLMVCLLCVGIFSWCIWKRKGRCSVPAFCSSQAEAPADTPEPTAGHTLYSVLSQGYEKLDTPLRPARQQPTPTSDSSSDSNLTTEEDEDRPEVHKPISGRYEVFDQVTQEGAGHDPAPEGQADYDPVTPYVTEVESVVGENTMYAQVFNLQGKTPVSQKEESSATIYCSIRKPQVVPPPQQNDLEIPESPTYENFT
partner: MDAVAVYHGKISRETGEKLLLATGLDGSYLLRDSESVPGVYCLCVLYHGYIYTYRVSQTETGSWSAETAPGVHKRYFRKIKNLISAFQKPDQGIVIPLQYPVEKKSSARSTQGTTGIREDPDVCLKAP
B2: T-lymphocyte surface antigen Ly-9 (Homo sapiens), Q9HBG7 (parent)
chain: B1 chain
partner: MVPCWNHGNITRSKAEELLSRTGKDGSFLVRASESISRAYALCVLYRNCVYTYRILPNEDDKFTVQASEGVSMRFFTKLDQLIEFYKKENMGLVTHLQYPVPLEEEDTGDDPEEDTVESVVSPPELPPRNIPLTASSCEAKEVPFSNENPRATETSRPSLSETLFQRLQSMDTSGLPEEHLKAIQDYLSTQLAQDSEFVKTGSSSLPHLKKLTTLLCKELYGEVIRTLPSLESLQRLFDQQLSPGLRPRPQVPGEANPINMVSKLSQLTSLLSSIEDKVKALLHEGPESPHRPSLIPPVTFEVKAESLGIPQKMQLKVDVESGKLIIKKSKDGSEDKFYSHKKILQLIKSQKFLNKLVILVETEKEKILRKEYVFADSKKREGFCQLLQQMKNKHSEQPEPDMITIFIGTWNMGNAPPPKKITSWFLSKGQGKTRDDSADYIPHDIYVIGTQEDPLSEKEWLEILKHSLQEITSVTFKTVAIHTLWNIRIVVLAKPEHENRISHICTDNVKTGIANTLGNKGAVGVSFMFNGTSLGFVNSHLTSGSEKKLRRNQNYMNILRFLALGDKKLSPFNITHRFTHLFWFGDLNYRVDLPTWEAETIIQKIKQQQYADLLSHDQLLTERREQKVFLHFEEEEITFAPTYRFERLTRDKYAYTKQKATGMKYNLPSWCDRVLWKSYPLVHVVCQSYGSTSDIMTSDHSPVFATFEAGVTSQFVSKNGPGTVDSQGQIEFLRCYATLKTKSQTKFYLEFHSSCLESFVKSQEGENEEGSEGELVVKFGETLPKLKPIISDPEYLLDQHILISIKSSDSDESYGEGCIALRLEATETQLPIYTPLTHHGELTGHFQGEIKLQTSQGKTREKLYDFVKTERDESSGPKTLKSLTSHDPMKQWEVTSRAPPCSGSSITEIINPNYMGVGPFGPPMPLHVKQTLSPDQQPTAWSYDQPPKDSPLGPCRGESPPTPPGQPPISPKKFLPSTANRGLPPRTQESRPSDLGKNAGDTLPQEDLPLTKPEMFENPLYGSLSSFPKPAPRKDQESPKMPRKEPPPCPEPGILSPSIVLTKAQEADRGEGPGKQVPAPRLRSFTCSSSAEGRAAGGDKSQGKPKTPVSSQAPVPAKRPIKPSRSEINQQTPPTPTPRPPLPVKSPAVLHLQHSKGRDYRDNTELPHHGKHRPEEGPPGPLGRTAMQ

Variants of: B1
Conditions: with sh21a_human SH2D1A

Row | Variant | effect of a mutation on the interaction
1 | M602V | decreasing interaction

Variants of: B2
Conditions: with ship1_human INPP5D

Row | Variant | effect of a mutation on the interaction
2 | M602V | decreasing interaction
